Consider 2 proteins from article PMC3654483 (Bioscience Reports, 2013).

This data set concerns the molecule itself. The experiment in a line: AUC.

B1: Sirt1-214-664 (domain or fragment)
chain: ELDDMTLWQIVINILSEPPKRKKRKDINTIEDAVKLLQECKKIIVLTGAGVSVSCGIPDFRSRDGIYARLAVDFPDLPDPQAMFDIEYFRKDPRPFFKFAKEIYPGQFQPSLCHKFIALSDKEGKLLRNYTQNIDTLEQVAGIQRIIQCHGSFATASCLICKYKVDCEAVRGDIFNQVVPRCPRCPADEPLAIMKPEIVFFGENLPEQFHRAMKYDKDEVDLLIVIGSSLKVRPVALIPSSIPHEVPQILINREPLPHLHFDVELLGDCDVIINELCHRLGGEYAKLCCNPVKLSEITEKPPRTQKELAYLSELPPTPLHVSEDSSSPERTSPPDSSVIVTLLDQAAKSNDDLDVSESKGCMEEKPQEVQTSRNVESIAEQMENPDLKNVGSSTGEKNERTSVAGTVRKCWPNRVAKEQISRRLDGNQYLFLPPNRYIFHGAEVYSDSEDD
In the case of B1, the binding result was “binds”.

B2: Sirt1-214-747 (domain or fragment)
chain: ELDDMTLWQIVINILSEPPKRKKRKDINTIEDAVKLLQECKKIIVLTGAGVSVSCGIPDFRSRDGIYARLAVDFPDLPDPQAMFDIEYFRKDPRPFFKFAKEIYPGQFQPSLCHKFIALSDKEGKLLRNYTQNIDTLEQVAGIQRIIQCHGSFATASCLICKYKVDCEAVRGDIFNQVVPRCPRCPADEPLAIMKPEIVFFGENLPEQFHRAMKYDKDEVDLLIVIGSSLKVRPVALIPSSIPHEVPQILINREPLPHLHFDVELLGDCDVIINELCHRLGGEYAKLCCNPVKLSEITEKPPRTQKELAYLSELPPTPLHVSEDSSSPERTSPPDSSVIVTLLDQAAKSNDDLDVSESKGCMEEKPQEVQTSRNVESIAEQMENPDLKNVGSSTGEKNERTSVAGTVRKCWPNRVAKEQISRRLDGNQYLFLPPNRYIFHGAEVYSDSEDDVLSSSSCGSNSDSGTCQSPSLEEPMEDESEIEEFYNGLEDEPDVPERAGGAGFGTDGDDQEAINEAISVKQEVTDMNYPSNKS
Consider B2, for which the binding result is listed as “binds”.
